From paper doi:10.1101/626572

Biological target: Concanavalin A (Con A) (UniProt P02866;P02866 164-281;30-148)
Assay: particle-based flow cytometry

Sequence of Concanavalin A (Con A) (P02866 164-281, chain 1 of 2): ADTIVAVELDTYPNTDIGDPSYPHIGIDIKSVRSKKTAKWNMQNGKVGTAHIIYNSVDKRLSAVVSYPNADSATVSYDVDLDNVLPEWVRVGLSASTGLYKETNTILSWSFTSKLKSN
Sequence of Concanavalin A (Con A) (P02866 30-148, chain 2 of 2): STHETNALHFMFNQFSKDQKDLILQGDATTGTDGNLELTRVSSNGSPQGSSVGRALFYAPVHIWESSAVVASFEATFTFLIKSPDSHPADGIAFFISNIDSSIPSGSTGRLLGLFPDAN

B1: ConA-3-1n (ssDNA)
DNA: GATCCCAGTCCGAAGTAATCGTTGCATCTGCACGACTGGTGAGCTTGAGTGGCAGAAGAACTTGTGCAAACGGCTATAGG
B1: no binding.
